# Assay results taken from the supplement of paper PMC7125110.
# ± gives the standard error. For some assays here: Fewer inactive variants are shown than the library holds.
# B1: glmS ribozyme (parent)
# chain: AUAAAAGCGCCAGAACUACAGAAAUGUAGUUGACGAGGAGGAGGUUUAUCGAAUUUUCGGCGGAUGCCUCCAAA
# Legend:
# Conditions in all cases: with glucosamine-6-phosphate
# [1] = variants of: B1; experiment: kcat; higher = faster cleavage; RNA array
# Outline: (§1)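 The measurements used barcoded ribozyme variants on sequenced MiSeq chips, transcribed in situ by E. coli RNA polymerase and tracked at 37 °C with a hybridised Cy3 probe. Glucosamine-6-phosphate, 40 μM to 10 mM in HEPES/KCl/Mg(OAc)2 buffer, was flowed in while tiles were imaged over ~14 h. Baseline-normalised signals, also normalised to non-cleaving reference variants, gave per-tile medians that were fit to one- or two-exponential decays for kobs. kcat and KM resulted from weighted Michaelis–Menten fits across concentrations.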
# [2] = variants of: B1; experiment: KM; higher = weaker cofactor use; RNA array
# Outline: as §1
# [3] = variants of: B1; experiment: self-cleavage kobs at 40 uM GlcN6P; higher = faster cleavage; RNA array
# Outline: as §1
# [4] = variants of: B1; experiment: self-cleavage kobs at 160 uM GlcN6P; higher = faster cleavage; RNA array
# Outline: as §1
# [5] = variants of: B1; experiment: self-cleavage kobs at 640 uM GlcN6P; higher = faster cleavage; RNA array
# Outline: as §1
# [6] = variants of: B1; experiment: self-cleavage kobs at 2500 uM GlcN6P; higher = faster cleavage; RNA array
# Outline: as §1
# [7] = variants of: B1; experiment: self-cleavage kobs at 10000 uM GlcN6P; higher = faster cleavage; RNA array
# Outline: as §1
Variant,kcat [1] [s⁻¹],KM [2] [µM],self-cleavage kobs at 40 uM GlcN6P [3] [s⁻¹],self-cleavage kobs at 160 uM GlcN6P [4] [s⁻¹],self-cleavage kobs at 640 uM GlcN6P [5] [s⁻¹],self-cleavage kobs at 2500 uM GlcN6P [6] [s⁻¹],self-cleavage kobs at 10000 uM GlcN6P [7] [s⁻¹]
G29A U45A,0.0109 ± 0.003,3200 ± 1300,0.000219 ± 4.2e-05,0.000411 ± 0.00014,0.00159 ± 0.00032,0.00447 ± 0.0012,0.00857 ± 0.0012
A33U U46C,2.23e-05 ± 3.7e-06,–,–,–,–,–,–
A52U C68U,0.000287 ± 4.1e-06,2080 ± 62,–,1.96e-05 ± 8.9e-06,6.72e-05 ± 8.8e-06,0.000158 ± 1.4e-05,0.000236 ± 2.4e-05
A12C G41A,0.00163 ± 0.00065,–,7.57e-05 ± 9.1e-06,0.000107 ± 1.7e-05,0.000353 ± 3.5e-05,0.00105 ± 0.00012,0.00136 ± 0.00017
G44C U54C,0.000264 ± 8.4e-05,–,–,–,–,0.000133 ± 2.4e-05,0.000179 ± 3e-05
G43A U45G C58G,2.82e-05 ± 8e-07,199 ± 61,–,–,–,–,–
A14C U31G,0.0249 ± 0.0019,2550 ± 250,0.000384 ± 5.3e-05,0.00145 ± 0.00024,0.00494 ± 0.00094,0.0154 ± 0.0047,0.0194 ± 0.0031
A15G A48C,0.000466 ± 1.6e-05,2830 ± 210,–,2.29e-05 ± 1.1e-05,9.04e-05 ± 1.7e-05,0.000212 ± 3.2e-05,0.000365 ± 3.6e-05
C11G U30C U65G U69A,2.81e-05 ± 7.1e-06,–,–,–,–,–,–
A15U A53U,0.00543 ± 0.0013,2950 ± 940,9.26e-05 ± 9.9e-06,0.000245 ± 3.8e-05,0.000755 ± 0.00012,0.00314 ± 0.00055,0.0042 ± 0.00042
A6U C61G,< 1e-05,–,–,< 1e-05,< 1e-05,–,–
A39C U56A,0.00331 ± 0.00086,4000 ± 1500,5.87e-05 ± 1.3e-05,0.000129 ± 3.6e-05,0.000412 ± 5.2e-05,0.00133 ± 0.00019,0.00238 ± 0.00034
G32U C71G,0.000107 ± 7.3e-06,741 ± 280,–,–,6.13e-05 ± 1.6e-05,7.51e-05 ± 9.8e-06,0.000102 ± 8.2e-06
C34G U46G C50U C67U,1.54e-05 ± 5.4e-06,–,–,–,–,–,–
U56A A64U,5.11e-05 ± 2e-06,1250 ± 250,–,–,–,3.54e-05 ± 1.6e-05,4.52e-05 ± 1e-05
C10A G38A,< 1e-05,–,< 1e-05,–,–,–,–
G13A C67A,0.000273 ± 6.7e-05,4490 ± 2100,–,–,2.62e-05 ± 8.7e-06,0.000133 ± 2.4e-05,0.000181 ± 2.5e-05

Variant,kcat [1] [s⁻¹],KM [2] [µM],self-cleavage kobs at 40 uM GlcN6P [3] [s⁻¹],self-cleavage kobs at 160 uM GlcN6P [4] [s⁻¹],self-cleavage kobs at 640 uM GlcN6P [5] [s⁻¹],self-cleavage kobs at 2500 uM GlcN6P [6] [s⁻¹],self-cleavage kobs at 10000 uM GlcN6P [7] [s⁻¹]
C11U U45G U54A,0.000206 ± 5.6e-05,–,–,–,–,0.000119 ± 2.7e-05,0.000152 ± 3.4e-05
A6G U31C,6.74e-05 ± 1.3e-05,–,–,–,–,5.13e-05 ± 7.6e-06,5.58e-05 ± 7.5e-06
C71G,0.0034 ± 0.00063,1460 ± 470,0.000157 ± 1.8e-05,0.00041 ± 3.6e-05,0.000926 ± 4.6e-05,0.00218 ± 0.00013,0.00313 ± 0.00019
C10A C71A,1.51e-05 ± 2.9e-06,–,–,–,–,–,–
G40A A48G,4.48e-05 ± 1.1e-05,–,< 1e-05,–,–,4.6e-05 ± 7.9e-06,3.71e-05 ± 7.6e-06
G32C U47A,4.35e-05 ± 2.1e-06,1450 ± 320,–,–,–,2.87e-05 ± 1.3e-05,3.77e-05 ± 9.7e-06
A52U U69C,0.000239 ± 2.7e-05,1990 ± 540,–,–,5.38e-05 ± 2.2e-05,0.000152 ± 3.9e-05,0.000191 ± 4.2e-05
A52G A53U,0.000266 ± 2.2e-05,1900 ± 430,–,–,6.4e-05 ± 1.5e-05,0.000176 ± 3.4e-05,0.000219 ± 2.3e-05
A14G G60A C70G,1.55e-05 ± 4e-06,–,< 1e-05,–,–,–,–
G32U U49G,5.32e-05 ± 7.1e-06,–,< 1e-05,–,–,4.54e-05 ± 1.2e-05,4.7e-05 ± 6.6e-06
G29C G32A,0.00108 ± 0.00019,1960 ± 740,3.72e-05 ± 1.5e-05,–,0.000251 ± 8.5e-05,0.000762 ± 0.00038,0.0009 ± 0.00015
G13C U69G,5.45e-05 ± 1.1e-05,–,3.61e-05 ± 1.3e-05,4.33e-05 ± 1.6e-05,9.44e-05 ± 2.5e-05,4.52e-05 ± 1.2e-05,–
G41C U47A,0.000354 ± 1.6e-05,4510 ± 420,–,–,4.21e-05 ± 1.2e-05,0.000134 ± 2.8e-05,0.000243 ± 2.7e-05
G44U U55A,0.000317 ± 4.2e-05,891 ± 390,–,–,0.000157 ± 4e-05,0.000288 ± 4.6e-05,0.000273 ± 3.2e-05
G37C G59U,1.65e-05 ± 6.9e-06,–,–,–,–,–,–
A39U A52G,0.00113 ± 0.00012,4750 ± 800,–,5.2e-05 ± 1.4e-05,0.000134 ± 1.3e-05,0.000345 ± 5.5e-05,0.00078 ± 5.8e-05
G13C C68U,< 1e-05,–,< 1e-05,< 1e-05,< 1e-05,–,–
